Source: patent US20210380975A1

Assays:
[1] = molecular target: AKAP 150 (rat A-kinase anchor protein) (rat) (UniProt P24587); test: cell-based or functional assay
[2] = molecular target: IL-6 (human, in degenerative IVD conditioned media) (human) (UniProt P05231); test: cell-based or functional assay
UniProt P05231, sequence (P05231 30-212 limits assumed): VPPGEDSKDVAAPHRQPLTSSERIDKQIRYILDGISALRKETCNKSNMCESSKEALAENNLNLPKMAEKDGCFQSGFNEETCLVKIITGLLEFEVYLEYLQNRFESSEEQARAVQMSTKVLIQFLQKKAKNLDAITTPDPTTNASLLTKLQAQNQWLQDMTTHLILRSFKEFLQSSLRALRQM

UniProt P24587, sequence (P24587 whole entry): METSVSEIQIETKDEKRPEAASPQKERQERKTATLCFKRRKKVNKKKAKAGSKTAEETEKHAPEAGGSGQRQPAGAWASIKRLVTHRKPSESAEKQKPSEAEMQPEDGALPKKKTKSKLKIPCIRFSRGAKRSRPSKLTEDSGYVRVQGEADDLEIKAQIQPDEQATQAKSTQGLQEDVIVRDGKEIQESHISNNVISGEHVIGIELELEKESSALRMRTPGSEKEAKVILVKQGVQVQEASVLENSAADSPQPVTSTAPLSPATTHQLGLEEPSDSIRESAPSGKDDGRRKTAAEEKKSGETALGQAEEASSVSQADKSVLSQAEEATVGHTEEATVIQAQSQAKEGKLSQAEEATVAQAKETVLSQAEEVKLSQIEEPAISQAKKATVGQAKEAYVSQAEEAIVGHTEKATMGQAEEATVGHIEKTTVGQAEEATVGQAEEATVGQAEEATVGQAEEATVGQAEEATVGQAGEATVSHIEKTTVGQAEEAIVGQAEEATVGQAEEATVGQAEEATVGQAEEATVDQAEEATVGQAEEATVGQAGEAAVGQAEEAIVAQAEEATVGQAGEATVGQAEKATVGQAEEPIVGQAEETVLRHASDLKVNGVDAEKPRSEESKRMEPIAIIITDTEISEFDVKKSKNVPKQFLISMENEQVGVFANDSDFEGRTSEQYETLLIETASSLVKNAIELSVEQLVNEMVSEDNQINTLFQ

Row | Substance | percentage of rat DRG neurons firing at 39° C. in degenerative IVD conditioned media [1] | maximum firing response of DRG neurons (Boltzmann fit) [2]
1 | AKAP inhibitor peptide St-Ht31 (Promega) | 15.5% | –
2 | Mouse isotype control antibody (Life Technologies) | – | 66%
3 | Control peptide St-Ht31P (Promega) | 61.9% | –
